Data taken from the supplement of paper PMC10567573.

B1: SMOC2 (parent)
chain: PALETQPQGDEEDIASRYPTLWTE
B2: IMPA1 (parent)
chain: FIGEESVAAGEKSILTDNPTWIID

Variants of: B1
Test: protein stability index of a GFP-peptide fusion (GPS, HEK-293T) (PSI 1-6); higher = more stable
Conditions: c terminus: a fixed tail appended
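Note: lentivirally expressed fusions sorted by FACS into six bins by GFP to DsRed ratio, PSI derived from sequencing read proportions per bin multiplied by bin number.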

First: P1F
Second: P1E
The protein stability index of the first is lower: 3.44 for the first, 4.63 for the second.

Compared with P1V, P1D is higher in protein stability index: 4.24 for the first, 4.56 for the second.

Going from P1K to P1L, the protein stability index falls from 4.04 to 4.

Compared with P1H, P1I is lower in protein stability index: 4.32 for the first, 4.09 for the second.

Going from P1S to P1W, the protein stability index falls from 4.78 to 3.84.

Compared with P1M, P1C is lower in protein stability index: 4.25 for the first, 3.24 for the second.

Going from P1R to P1T, the protein stability index falls from 4.74 to 4.58.

First: P1Y
Second: P1G
The protein stability index of the first is lower: 3.1 for the first, 4.33 for the second.

First: P1Q
Second: P1N
The protein stability index of the first is lower: 3.91 for the first, 4.08 for the second.

First: P1A
Second: Q6W
The protein stability index of the first is higher: 4.26 for the first, 4.15 for the second.

First: Q6L
Second: Q6T
The protein stability index of the first is lower: 4 for the first, 4.7 for the second.

First: Q6C
Second: Q6V
The protein stability index of the first is higher: 4.7 for the first, 3.97 for the second.

Going from Q6E to Q6P, the protein stability index rises from 4.39 to 4.55.

Compared with Q6G, Q6D is lower in protein stability index: 5.04 for the first, 4.92 for the second.

Going from Q6M to Q6I, the protein stability index rises from 4.13 to 4.77.

Going from Q6H to Q6R, the protein stability index falls from 4.73 to 4.34.

Going from Q6Y to Q6K, the protein stability index falls from 4.66 to 4.26.

Compared with Q6A, Q6F is lower in protein stability index: 4.44 for the first, 4.25 for the second.

Compared with Q6N, A2F is higher in protein stability index: 4.3 for the first, 4.53 for the second.

Going from A2W to A2Y, the protein stability index rises from 3.88 to 4.61.

Compared with A2L, A2E is lower in protein stability index: 5.17 for the first, 4.48 for the second.

Going from A2G to A2T, the protein stability index falls from 5.22 to 4.11.

First: A2H
Second: A2R
The protein stability index of the first is higher: 4.74 for the first, 3.7 for the second.

First: A2K
Second: A2D
The protein stability index of the first is lower: 4.13 for the first, 5.13 for the second.

Going from A2I to A2V, the protein stability index rises from 4.07 to 4.67.

First: A2N
Second: A2M
The protein stability index of the first is higher: 5.04 for the first, 4.6 for the second.

Going from A2C to A2Q, the protein stability index rises from 4.4 to 4.54.

First: A2S
Second: E4L
The protein stability index of the first is higher: 4.88 for the first, 4.22 for the second.

Compared with E4N, E4I is lower in protein stability index: 4.31 for the first, 3.21 for the second.

Compared with E4Q, E4G is lower in protein stability index: 4.9 for the first, 4.07 for the second.

Compared with E4S, E4W is lower in protein stability index: 4.32 for the first, 3.52 for the second.

Compared with E4V, E4R is lower in protein stability index: 4.11 for the first, 3.77 for the second.

First: E4T
Second: E4H
The protein stability index of the first is higher: 4.46 for the first, 3.77 for the second.

Compared with E4M, E4D is higher in protein stability index: 3.95 for the first, 4.91 for the second.

First: E4K
Second: E4F
The protein stability index of the first is higher: 4.31 for the first, 3.64 for the second.

First: E4Y
Second: E4C
The protein stability index of the first is lower: 2.74 for the first, 3.96 for the second.

Compared with E4A, P7C is higher in protein stability index: 4.42 for the first, 4.46 for the second.

Going from P7H to P7D, the protein stability index rises from 4.29 to 4.67.

First: P7F
Second: P7E
The protein stability index of the first is lower: 4.08 for the first, 4.67 for the second.

Compared with P7G, P7K is lower in protein stability index: 4.5 for the first, 3.38 for the second.

First: P7L
Second: P7A
The protein stability index of the first is higher: 4.6 for the first, 4.07 for the second.

Going from P7I to L3G, the protein stability index falls from 5.37 to 4.33.

First: L3Y
Second: L3E
The protein stability index of the first is lower: 4.81 for the first, 5.59 for the second.

Going from L3R to L3Q, the protein stability index rises from 4.44 to 4.97.

Going from L3I to L3N, the protein stability index falls from 5.31 to 4.23.

Going from L3T to L3F, the protein stability index falls from 4.9 to 4.85.

Going from L3K to L3P, the protein stability index rises from 4.27 to 5.08.

First: L3V
Second: L3W
The protein stability index of the first is higher: 4.87 for the first, 4.04 for the second.

Going from L3S to L3C, the protein stability index falls from 5.03 to 5.01.

First: L3H
Second: L3D
The protein stability index of the first is lower: 4.36 for the first, 5.37 for the second.

First: L3M
Second: T5V
The protein stability index of the first is higher: 4.83 for the first, 3.77 for the second.

First: T5D
Second: T5S
The protein stability index of the first is higher: 5.12 for the first, 4.3 for the second.

Going from T5K to T5G, the protein stability index rises from 3.88 to 4.3.

Going from T5A to T5I, the protein stability index falls from 4.8 to 4.45.

First: T5N
Second: T5W
The protein stability index of the first is higher: 4.54 for the first, 4.51 for the second.

Compared with T5Q, T5M is higher in protein stability index: 4.72 for the first, 5.01 for the second.

Compared with T5R, T5E is higher in protein stability index: 4.93 for the first, 4.99 for the second.

Going from T5F to T5L, the protein stability index falls from 4.58 to 4.45.

Going from T5Y to T5P, the protein stability index falls from 4.65 to 4.58.

Going from T5C to T5H, the protein stability index rises from 4.61 to 4.64.

Variants of: B2
Test: as above
Conditions: c terminus: a fixed tail appended

Going from T16R to T16H, the protein stability index rises from 2.37 to 2.38.

First: T16I
Second: T16M
The protein stability index of the first is lower: 1.41 for the first, 2.38 for the second.

First: G10W
Second: T20F
The protein stability index of the first is lower: 1.83 for the first, 2.29 for the second.

First: I22N
Second: I22G
The protein stability index of the first is higher: 3.12 for the first, 3.11 for the second.

First: I22Q
Second: D17N
The protein stability index of the first is higher: 2.75 for the first, 1.85 for the second.

Going from E11Y to E11K, the protein stability index falls from 1.93 to 1.89.

First: E11D
Second: P19L
The protein stability index of the first is higher: 2.3 for the first, 1.97 for the second.

Going from P19N to P19Y, the protein stability index falls from 2.89 to 2.18.

First: A9M
Second: A9W
The protein stability index of the first is lower: 1.75 for the first, 1.87 for the second.

Compared with A9T, E5Q is higher in protein stability index: 2.1 for the first, 2.38 for the second.

Going from S13K to S13F, the protein stability index falls from 2.16 to 1.97.

Going from S13P to I14D, the protein stability index rises from 2.02 to 2.34.

Going from D24W to D24L, the protein stability index falls from 2.06 to 2.05.

Compared with D24E, D24F is higher in protein stability index: 2.03 for the first, 2.2 for the second.

Compared with E4H, I2T is higher in protein stability index: 1.76 for the first, 2.83 for the second.

Compared with I2F, S6E is lower in protein stability index: 3.65 for the first, 3.07 for the second.

Compared with S6F, V7N is higher in protein stability index: 1.81 for the first, 2.4 for the second.

Going from L15C to I23E, the protein stability index rises from 2.3 to 3.85.

First: I23L
Second: I23G
The protein stability index of the first is higher: 3.6 for the first, 2.99 for the second.

Compared with I23P, I23M is lower in protein stability index: 3.04 for the first, 2.52 for the second.

Compared with G3W, W21E is higher in protein stability index: 1.59 for the first, 5.07 for the second.

Compared with F1P, F1N is lower in protein stability index: 4.56 for the first, 4.45 for the second.

Compared with F1A, F1Q is higher in protein stability index: 4.65 for the first, 4.87 for the second.

Work on A8R yielded a protein stability index of 1.62.
